Kd data for 27 molecules are collected here from PMC10786891, “Massively parallel profiling of RNA-targeting CRISPR-Cas13d”.

The chains are these.
T1: EsCas13d, nuclease-dead (Eubacterium siraeum, UniProt B0MS50, R295A;H300A;R849A;H854A)
T1 sequence: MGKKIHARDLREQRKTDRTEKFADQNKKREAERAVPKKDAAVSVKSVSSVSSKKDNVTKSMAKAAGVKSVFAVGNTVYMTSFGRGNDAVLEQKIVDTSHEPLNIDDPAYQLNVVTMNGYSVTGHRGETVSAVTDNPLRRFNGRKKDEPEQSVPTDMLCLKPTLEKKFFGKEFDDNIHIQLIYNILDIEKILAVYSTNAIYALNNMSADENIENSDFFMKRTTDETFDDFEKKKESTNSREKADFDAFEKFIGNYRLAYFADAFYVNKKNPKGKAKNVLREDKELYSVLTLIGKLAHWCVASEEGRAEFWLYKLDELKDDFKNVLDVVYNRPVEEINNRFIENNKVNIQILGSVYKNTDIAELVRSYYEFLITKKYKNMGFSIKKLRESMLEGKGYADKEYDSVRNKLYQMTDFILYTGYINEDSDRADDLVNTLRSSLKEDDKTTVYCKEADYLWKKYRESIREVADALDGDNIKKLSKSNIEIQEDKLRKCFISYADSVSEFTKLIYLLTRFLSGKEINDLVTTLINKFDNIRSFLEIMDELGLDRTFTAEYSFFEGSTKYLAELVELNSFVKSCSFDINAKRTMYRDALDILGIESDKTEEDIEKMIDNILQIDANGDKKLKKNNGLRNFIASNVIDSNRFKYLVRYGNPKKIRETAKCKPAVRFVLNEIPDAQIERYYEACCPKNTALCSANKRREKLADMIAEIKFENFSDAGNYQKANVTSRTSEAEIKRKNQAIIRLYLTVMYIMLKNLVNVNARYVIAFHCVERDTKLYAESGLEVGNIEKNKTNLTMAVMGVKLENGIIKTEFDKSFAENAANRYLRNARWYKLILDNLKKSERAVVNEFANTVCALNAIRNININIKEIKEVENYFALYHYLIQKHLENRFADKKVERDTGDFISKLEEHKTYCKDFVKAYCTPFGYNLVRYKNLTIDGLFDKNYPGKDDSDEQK

B1: target 1 C6A,G15C (mixed)
RNA 1: CACCCGUGCAAAAAUGCAGGGGUCUAAAACUGAGCGGAUAACCUCUCUAUGG
RNA 2: GGGAAUGGAUCCACAUCUACGAAUUCGUACCAUAGACAGGUUAUCAGCUCACCGAGAUCGGAAGAGCACACGU
B2: target 1 C2A,A16G (mixed)
RNA 1: CACCCGUGCAAAAAUGCAGGGGUCUAAAACUGAGCGGAUAACCUCUCUAUGG
RNA 2: GGGAAUGGAUCCACAUCUACGAAUUCGUACCAUAGGGAGGUUAUCCGCUAACCGAGAUCGGAAGAGCACACGU
B3: target 1 del4,del11 (mixed)
RNA 1: CACCCGUGCAAAAAUGCAGGGGUCUAAAACUGAGCGGAUAACCUCUCUAUGG
RNA 2: GGGAAUGGAUCCACAUCUACGAAUUCGUACCAUAGAGAGGUAUCCGUCACCGAGAUCGGAAGAGCACACGU
B4: target 1 U11G,G17A (mixed)
RNA 1: CACCCGUGCAAAAAUGCAGGGGUCUAAAACUGAGCGGAUAACCUCUCUAUGG
RNA 2: GGGAAUGGAUCCACAUCUACGAAUUCGUACCAUAAAGAGGGUAUCCGCUCACCGAGAUCGGAAGAGCACACGU
B5: target 1 A16C,C22U (mixed)
RNA 1: CACCCGUGCAAAAAUGCAGGGGUCUAAAACUGAGCGGAUAACCUCUCUAUGG
RNA 2: GGGAAUGGAUCCACAUCUACGAAUUCGUAUCAUAGCGAGGUUAUCCGCUCACCGAGAUCGGAAGAGCACACGU
B6: target 1 C2G,C7U (mixed)
RNA 1: CACCCGUGCAAAAAUGCAGGGGUCUAAAACUGAGCGGAUAACCUCUCUAUGG
RNA 2: GGGAAUGGAUCCACAUCUACGAAUUCGUACCAUAGAGAGGUUAUUCGCUGACCGAGAUCGGAAGAGCACACGU
B7: target 1 insU 3' of 20,insA 3' of 8 (mixed)
RNA 1: CACCCGUGCAAAAAUGCAGGGGUCUAAAACUGAGCGGAUAACCUCUCUAUGG
RNA 2: GGGAAUGGAUCCACAUCUACGAAUUCGUACCAUUAGAGAGGUUAUACCGCUCACCGAGAUCGGAAGAGCACACGU
B8: target 1 insA 3' of 13,insA 3' of 5 (mixed)
RNA 1: CACCCGUGCAAAAAUGCAGGGGUCUAAAACUGAGCGGAUAACCUCUCUAUGG
RNA 2: GGGAAUGGAUCCACAUCUACGAAUUCGUACCAUAGAGAGAGUUAUCCGACUCACCGAGAUCGGAAGAGCACACGU
B9: target 1 U11A,A20C (mixed)
RNA 1: CACCCGUGCAAAAAUGCAGGGGUCUAAAACUGAGCGGAUAACCUCUCUAUGG
RNA 2: GGGAAUGGAUCCACAUCUACGAAUUCGUACCCUAGAGAGGAUAUCCGCUCACCGAGAUCGGAAGAGCACACGU
B10: target 1 insC 3' of 9,insU 3' of 2 (mixed)
RNA 1: CACCCGUGCAAAAAUGCAGGGGUCUAAAACUGAGCGGAUAACCUCUCUAUGG
RNA 2: GGGAAUGGAUCCACAUCUACGAAUUCGUACCAUAGAGAGGUUACUCCGCUCUACCGAGAUCGGAAGAGCACACGU
B11: target 1 A9G,G17A (mixed)
RNA 1: CACCCGUGCAAAAAUGCAGGGGUCUAAAACUGAGCGGAUAACCUCUCUAUGG
RNA 2: GGGAAUGGAUCCACAUCUACGAAUUCGUACCAUAAAGAGGUUGUCCGCUCACCGAGAUCGGAAGAGCACACGU
B12: target 1 insC 3' of 14,insA 3' of 5 (mixed)
RNA 1: CACCCGUGCAAAAAUGCAGGGGUCUAAAACUGAGCGGAUAACCUCUCUAUGG
RNA 2: GGGAAUGGAUCCACAUCUACGAAUUCGUACCAUAGAGACGGUUAUCCGACUCACCGAGAUCGGAAGAGCACACGU
B13: target 1 insA 3' of 19,insU 3' of 2 (mixed)
RNA 1: CACCCGUGCAAAAAUGCAGGGGUCUAAAACUGAGCGGAUAACCUCUCUAUGG
RNA 2: GGGAAUGGAUCCACAUCUACGAAUUCGUACCAUAAGAGAGGUUAUCCGCUCUACCGAGAUCGGAAGAGCACACGU
B14: target 1 insA 3' of 4,insA 3' of 3 (mixed)
RNA 1: CACCCGUGCAAAAAUGCAGGGGUCUAAAACUGAGCGGAUAACCUCUCUAUGG
RNA 2: GGGAAUGGAUCCACAUCUACGAAUUCGUACCAUAGAGAGGUUAUCCGCAUACACCGAGAUCGGAAGAGCACACGU
B15: target 1 C7A,U19A (mixed)
RNA 1: CACCCGUGCAAAAAUGCAGGGGUCUAAAACUGAGCGGAUAACCUCUCUAUGG
RNA 2: GGGAAUGGAUCCACAUCUACGAAUUCGUACCAAAGAGAGGUUAUACGCUCACCGAGAUCGGAAGAGCACACGU
B16: target 1 insA 3' of 6,insU 3' of 6 (mixed)
RNA 1: CACCCGUGCAAAAAUGCAGGGGUCUAAAACUGAGCGGAUAACCUCUCUAUGG
RNA 2: GGGAAUGGAUCCACAUCUACGAAUUCGUACCAUAGAGAGGUUAUCCAUGCUCACCGAGAUCGGAAGAGCACACGU
B17: target 1 insU 3' of 6,insG 3' of 6 (mixed)
RNA 1: CACCCGUGCAAAAAUGCAGGGGUCUAAAACUGAGCGGAUAACCUCUCUAUGG
RNA 2: GGGAAUGGAUCCACAUCUACGAAUUCGUACCAUAGAGAGGUUAUCCUGGCUCACCGAGAUCGGAAGAGCACACGU
B18: target 1 insG 3' of 14,insC 3' of 13 (mixed)
RNA 1: CACCCGUGCAAAAAUGCAGGGGUCUAAAACUGAGCGGAUAACCUCUCUAUGG
RNA 2: GGGAAUGGAUCCACAUCUACGAAUUCGUACCAUAGAGAGGCGUUAUCCGCUCACCGAGAUCGGAAGAGCACACGU
B19: target 1 insC 3' of 12,insC 3' of 10 (mixed)
RNA 1: CACCCGUGCAAAAAUGCAGGGGUCUAAAACUGAGCGGAUAACCUCUCUAUGG
RNA 2: GGGAAUGGAUCCACAUCUACGAAUUCGUACCAUAGAGAGGCUUCAUCCGCUCACCGAGAUCGGAAGAGCACACGU
B20: target 1 insA 3' of 22,insA 3' of 3 (mixed)
RNA 1: CACCCGUGCAAAAAUGCAGGGGUCUAAAACUGAGCGGAUAACCUCUCUAUGG
RNA 2: GGGAAUGGAUCCACAUCUACGAAUUCGUACACAUAGAGAGGUUAUCCGCUACACCGAGAUCGGAAGAGCACACGU
B21: target 1 insA 3' of 22,insG 3' of 9 (mixed)
RNA 1: CACCCGUGCAAAAAUGCAGGGGUCUAAAACUGAGCGGAUAACCUCUCUAUGG
RNA 2: GGGAAUGGAUCCACAUCUACGAAUUCGUACACAUAGAGAGGUUAGUCCGCUCACCGAGAUCGGAAGAGCACACGU
B22: target 1 insU 3' of 18,insU 3' of 13 (mixed)
RNA 1: CACCCGUGCAAAAAUGCAGGGGUCUAAAACUGAGCGGAUAACCUCUCUAUGG
RNA 2: GGGAAUGGAUCCACAUCUACGAAUUCGUACCAUAUGAGAGUGUUAUCCGCUCACCGAGAUCGGAAGAGCACACGU
B23: target 1 U10C,A20U (mixed)
RNA 1: CACCCGUGCAAAAAUGCAGGGGUCUAAAACUGAGCGGAUAACCUCUCUAUGG
RNA 2: GGGAAUGGAUCCACAUCUACGAAUUCGUACCUUAGAGAGGUCAUCCGCUCACCGAGAUCGGAAGAGCACACGU
B24: target 1 insC 3' of 12,insG 3' of 3 (mixed)
RNA 1: CACCCGUGCAAAAAUGCAGGGGUCUAAAACUGAGCGGAUAACCUCUCUAUGG
RNA 2: GGGAAUGGAUCCACAUCUACGAAUUCGUACCAUAGAGAGGCUUAUCCGCUGCACCGAGAUCGGAAGAGCACACGU
B25: target 1 insC 3' of 8,insG 3' of 4 (mixed)
RNA 1: CACCCGUGCAAAAAUGCAGGGGUCUAAAACUGAGCGGAUAACCUCUCUAUGG
RNA 2: GGGAAUGGAUCCACAUCUACGAAUUCGUACCAUAGAGAGGUUAUCCCGCGUCACCGAGAUCGGAAGAGCACACGU
B26: target 1 insC 3' of 22,insA 3' of 5 (mixed)
RNA 1: CACCCGUGCAAAAAUGCAGGGGUCUAAAACUGAGCGGAUAACCUCUCUAUGG
RNA 2: GGGAAUGGAUCCACAUCUACGAAUUCGUACCCAUAGAGAGGUUAUCCGACUCACCGAGAUCGGAAGAGCACACGU
B27: target 1 G13A,A18C (mixed)
RNA 1: CACCCGUGCAAAAAUGCAGGGGUCUAAAACUGAGCGGAUAACCUCUCUAUGG
RNA 2: GGGAAUGGAUCCACAUCUACGAAUUCGUACCAUCGAGAAGUUAUCCGCUCACCGAGAUCGGAAGAGCACACGU

The data set has as its target T1, EsCas13d, nuclease-dead. The data set can be described thus: crRNA (strand 1, pre-loaded); Mg2+; 40 mM Tris-HCl pH 7.5, 150 mM NaCl, 6 mM MgCl2, 1 mM DTT, 0.1% Tween-20, 0.2 mg/ml BSA; 25 C; 10 min per concentration, then washed. The conditions noted are these: tags: His6-TwinStrep-SUMO cleaved; N-terminal SNAP kept (SNAP-Surface 488); label: 3' end held by stalled T7 RNA polymerase.
As usually defined, the Kd is a measure of binding affinity in units of concentration. Molecule B1 gave a Kd of 0.056 ± 0.006 µM.

Take B2: the Kd stood at 0.0285 ± 0.002 µM. This Kd lies about 2-fold lower than the previous one.

As for B3, the Kd worked out at 0.1 ± 0.04 µM. This Kd is about 3.5-fold higher than that of the molecule before.

Molecule B4 returned a Kd of 0.074 ± 0.022 µM.

Turning to B5, binding was characterised by a dissociation constant (Kd) of 0.057 ± 0.012 µM.

B6 returned a Kd of 0.00382 ± 0.00029 µM. Against the preceding molecule, the Kd is about 15-fold lower.

Molecule B7 returned a Kd of 0.0253 ± 0.002 µM.

B8 registered a Kd of 0.0034 ± 0.0005 µM.

Turning to B9, binding was characterised by a dissociation constant (Kd) of 0.08 ± 0.04 µM.

B10: the Kd came to 0.0139 ± 0.0009 µM.

Regarding B11, the affinity, expressed as Kd, was 0.057 ± 0.012 µM.

Molecule B12 gave a Kd of roughly 0.06 µM.

Molecule B13 came in with a Kd of 0.023 ± 0.002 µM.

As for B14, the affinity, expressed as Kd, was 0.00701 ± 0.00033 µM.

B15 displayed a Kd of 0.048 ± 0.005 µM.

Consider B16, for which the Kd is 0.0289 ± 0.0014 µM.

As to B17, binding was put at a Kd of 0.0131 ± 0.0005 µM.

The molecule B18 displayed a Kd of 0.0137 ± 0.0009 µM.

Turning to B19, the Kd was found to be 0.0239 ± 0.0029 µM.

As for B20, the Kd worked out at 0.0111 ± 0.0006 µM.

In turn, B21 gave a Kd of 0.0196 ± 0.001 µM.

As to B22, the dissociation constant Kd was 0.038 ± 0.014 µM.

On to B23, for which the Kd is 0.099 ± 0.014 µM.

On to B24, for which the Kd was found to be 0.0076 ± 0.0007 µM.

The molecule B25 showed an equilibrium dissociation constant (Kd) of 0.0128 ± 0.0008 µM.

Consider B26, for which the Kd was 0.019 ± 0.004 µM.

As for B27, binding was characterised by a dissociation constant (Kd) of 0.051 ± 0.008 µM.
